Assay: soluble fraction after stress (log2 fold change); higher = more stays soluble; pooled small domains, quantitative proteomics
Settings: stress: 50 degC
Procedure, shortened: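 Quantitative proteomics served as the high-throughput read-out for pooled custom libraries of small protein domains. Each was stressed at 50°C. Aggregation propensity is expressed as the base-two log fold change in soluble protein after stress. A higher value means a larger share of the protein remains in solution.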

| Sequence | soluble fraction (log2) |
| --- | --- |
| HMSENEVQAKVKEIVDRYAGDKSALIAILQDVQDEYRYLPKEALVSIQQQMNIPLSRVYEVATFYDAFS | -0.424 |
| HMFSSVSVPAELSNQRFDKVVAELTPDLSRSKIKQLILLGKVLLNGEVTPPKQKVETGDEIEIFYTRQIE | -0.63 |
| HMEAFDYLGRRTRDLLERQGWTTVPLVRDAYLAVPGGERLLQVPGFGRKSLREVRRWLWLQIGDPRFE | -1.36 |
| HMPSLGADIRALRKSRKMTLVALADALGRSVGWLSQVERDKSHATIADLGRMAEVLDVSISSFL | -0.27 |
| HMDAGLAEIIRSFEDNLGGFPPAAREDLLGWREIFTDDLILLAIKKAALAGVRKWSYVNGILKVWKNEGVR | -0.742 |
| HMKYNYEAQQSDELSLVKGSRIHVLEKSSDGWWKGEIDNVVGWFPS | -0.205 |
| HMTSVFQNSDGTWGHLTKTVNPLIYTIEYGRRTGFSSREEAEESYQRSLTSYQDQLSKLKKERD | 0.314 |
| HMSNHYETLGVEQTASVDEIKKAYRRLSLQYHPDRNTTSDAVGKFQKINDAHEILSDKQSRTEYDMQLK | 0.214 |
| HMKQAINFSDLNSLEEGLGIAIRQKWNEVSINDVPEDKIELVEDWINNNRGKYKGINISIGSTY | 0.167 |
| HMEVVELTDDEKMILATLHDGPVEIGHIKQVVGLSGKKWDAATKSLRQKGLINVVLENEQKLMVK | 0.422 |
| HMVSLSNQVFEKIEYDILSGKYKIGEIISEKRLSSELGVSRTPIREALGRLSEEGLVGDSPSGTVVLGI | -0.431 |
| HMFPELTDDEQLIVSTLAKTNDMQINMLAVRTGIPVQRMSALLFSLEMKGVVKMYAGGTYHLL | -1.05 |
| HMNTEFDVPDVVGKTLDEAEFVLKGSNLKRGLIMPVDDPSKAPGTIVRQNPEAGAGNKIRVGDVVDLWVVG | 0.168 |
| HMDSVPEEQLRQLALDKAKEVKRWGQPVELAKMNAHDRRIIHINLQDDPEIETRSEGEGALKSVIISLKK | 0.172 |
| HMDGVNRDKIEYRLDDLYYLKGSDAPYTGKVFEEWSGQQRVETNYIDGKLDGLSESWHENGQKASEVNY | 0.345 |
| HMAYMETIERVEALAPGTKFNLKALFGTDWTQSRGTKLTLGKTFYEMVESGYVKTAKVLGKDSSNIMQYER | -0.107 |
| HMEKINLIIEEDNNLRLDKVIAMQLQELSRTQIQDMINQGLVLVNQKKEKASYKTKLNDEIEITILD | -1.37 |
| HMDGEMRRKRILQLLSEQTKPLSGTALAKQFGVSRQVIVQDIALLKSKEPAIISTYRGYVLGR | -0.607 |
| HMNNGTDGLTTRLRRAILAGQYTFKERLPSERQLAEHFNTSRGTVRKVLQRLTTMNLVEQRAGSGTYVRYG | -0.2 |
| HMAAVSTDEEFAALGIPAEWIPVLKSNGFQTVESLKKVAPGALFNQLGGLRKKNKLEIAMPSLDQVKAWLA | 0.115 |
| HMHDLGEQIIEKLRASGGISTLTDKSDPDAIYRQFKVSKKKYKQALGTLYKSRRITLAPNQIKLA | -0.129 |
| HMTSSQLYLIEEDMEGERLDAFLAEVIADLSRTAIKDLISNGRVLVDGQARKPSYRVKEGEQVLIHVPEAR | -0.0195 |
| HMQASISVDEAKSIALNYAKFTADQVVYTKSELDYDDGRAEYEIEFYAGGKEYSFTIDAVSGTVLEMEI | -1.7 |

| Sequence | soluble fraction (log2) |
| --- | --- |
| HMTEKPTREAHILDQLARDGGVLVAALSRELGVSEVTIRSDLRDLEAAGLLQRTHGGAQASSFQTVL | -0.0142 |
| HMTNLKALRESKGVSQQTVADYLGITRQAYGNYETGKRQADYAALLRLAAFFGVSVDALLQP | -0.299 |
| HMTGLSNFEFNQIKLDLMHELTQTPLRLTDLVNRITSFENEKTITVIRFLVDEGILLLKDDTLSVAKID | -0.542 |
| HMADGTSIYAEREVLYVTSPTANTAKVYNVSGALVRTMTLSAGQTVRTALPAGFYVVALGNGNTHKVIV | -0.889 |
| HMKTGNIITVSLVWKGKYYMIRMFFPSASRPTRSDVQNEIEKVYPGSKLSTFSVSDYEPGQPLLQV | -1.16 |
| HMEPDEESVRLKEEILSRIDYWHTTMPYMGTRKLAAKLRTEGYAVGRKLVRTYMREMGIHAVYP | -0.132 |
| HMQVSDANQLTDVVKSIIKQYPVEVEKYKSGKKALFGFFMGKVMENLKGKSNPKILKNVLTEILD | 0.108 |
| HMSAQPMEYSRFYSDVTQGRVAEVEIEGREINGRLSTGERFKTFSPETDNKALIGHLLDNGVVIEGKPP | 0.234 |
| HMEKYIVNQEEQGKRLDIYVVNKSSELTRTAVQRLIEQEHILVNGRKQKASYKVLEGDIITIERV | 0.573 |
| HMSNRIDKIKLNHWLNIRKTSLDVLNNLLSKHLNHKINFENLENLDEQAIEKISEVLSIPKNKLLINDDVP | 0.16 |
| HMSDVVFRINANGLNVSGLANGERVSVYDTTGKLVTTAVSTQDNGTLNLPLKQSGGIYIARTQSGVSFKFT | -0.411 |
| HMRRELDSEHKRQEILFAAKRLLLAEGYDATSMSRLAKEAGVAPNTLYWYFKDKDELLIAILDELVAE | -1.72 |
| HMPTQGELAILRVLWEQGPSTVRAVWEKLNSQSGTGYTTALKLMQIMAQKGLVSRDESQKTHVYRA | -1.42 |
| HMAGIPIHMSQLKQIILLLSQGYPIKGIARETGVSRNTIKGYLQTLTSQDLNVTDALKLENIQLEYLLRSP | -1.65 |
| HMQYKTRVINLSILEVGMVLGRDLINKDGKIIVKKDVAISDFLKDHLIGLSKIKEIEPQIYIKV | -1.08 |
| HMVKFGERVKQLRLSAGMTQEQLAERIWVTKAAISNYELSERNPSPETIIKIAGVFGVTTDYLLGLED | -0.5 |
| HMGTAVKAPMPGTILKVNVTAGQSVKAGDIMFILEAMKMENEIVAPSDGTVSQVVAAKGSSVATDDVLAYL | -0.0338 |
| HMSEKELTDLIERIKERRLKLEMSYQDLSDATGISKSTLQRYETGYIKKVPINQIEILAKALHTTPSYLMG | -0.238 |
| HMEYTTEELDSLLKLYFQTHESINRNEFEQLTSYTRTTASRRLKTLVQAGKLQNIGLYRFPVYKPTEGNF | -2.49 |
| HMGGGEYTVAKGDTLWKIAAQTLGSPTRYAEIYNLNKDVIEETARGRGKRDSSNGHWLFPGTALKIPGT | 0.355 |
| HMSRVHHGFNISIARNRKGLKQAALADMLGISQQRLSQLENQRVVKDEILEKVSEATGVSVEDLKTIE | -0.253 |
| HMAMKFQDIVRQKRKELGLTQEQAARRLGVSPAAVSKWESGQSLPDTPLFAPLARLLHTDLNTLLSFE | -0.732 |
| HMKYRLLGENLQTIRKARGMKQQELADQIGINMQSLSKIERGLNYPTFETLEKIMNALGITPNELLSG | -0.461 |

| Sequence | soluble fraction (log2) |
| --- | --- |
| HMEFVEERRNRMLDYIGENKRADVPELARHFDVTEVTIRRDLLILEQDGKLIRTHGGAMINR | -0.433 |
| HMHSGFHSAILDVDRAVKEGKTLYEALNKYPYIFDETFRSLVRAGEASGELPSILSKLALYLEEQSK | -1.16 |
| HMGLQLTPVRRRVLEILLHEHRALGAYDILDKLRSEGLGSQPPVAYRALDFLVTHGFAHKIERLNAF | -0.609 |
| HMQEDQKTSIFDIEGVEKGVASVLSSIKVEIVSDLLEADMDDILKSGKISEDDLDGVYEAVQNFVER | 0.42 |
| HMYVADVVGMGIKDALYILENQGLRVVFTGKGVVKNQSIAVGEKIIKGEKIVLML | -1.7 |
| HMNAEQLAQVRRQKIGFIFQDFRLFPEYTVRDNILIPFYLDHRAPDEQMLHKLTGILGIAGKLHSRPAQL | -0.0698 |
| HMTKKSLFNQYLDDQKRLDIVTLQKAELVDLHKLADELNIDQYNQLKKNELIFKILQSNPSE | -0.135 |
| HMRGIPEEVADVAIQWVARLDSNEISDADRAAFFAWLDASPINRWAYNDISESWAKLSILNEMGH | -1.6 |
| HMSEPIYTQLKEILTQKIVNGEFPPGARLPSEYELTELYHISRSTVRLALKELEASGMIVRRRGKGTFVSS | -1.76 |
| HMSKHAIQNELEKIEGIGKQTADSLLKEFKSVKKLRTLPLSEIEKVIGKSKATIVFEALHKDK | 0.133 |
| HMSTMTEQEAFGLWERINDFIARTGNEPNRNSNDAHEVRMAEALNFIRIKVAEQRNSQSNSEAQNN | -0.0168 |
| HMLTGDVDRYKDFFIALEKTSPVPIGFEKIIGGAHGYYHLEDKRIAIDEGMSELQTLKTAIHEIAHAKLHD | -0.14 |
| HMVEELDVQFIKLTVQGDHPWKNKKIRELSIPWDLLFVLIIRGDKSIIPNGKTTIKDGDIVVVSAPEYRG | -0.676 |
| HMDKFTYVVKKEDEQYQIKDILRHNFTFSSRLRKKLKQNNSIFLNGAETVGWATPKEGDIISVRLP | -0.433 |
| HMQQDVLKLKSGGNYKGEYINIESAYVLFKPEGGNATQRIKVNEIQMLKLADGTEVIFGGRVK | 0.0478 |
| HMDLATQHAAKVNAAILAARRFEREGSWRQVAAKYSEALQLMPGNEQASRGYQQAMAMLDERD | 0.0786 |
| HMSDFDPTLILDLIKGSGEALTKREIARALGIKGGDKRIELKSHLKSMEAEGVIVKQAGGAYSVP | -0.122 |
| HMFIEPPSLEELERRLRGRGTETDDVVDMRMRTALVELSQKMEYDYRLVNDDLDEATRQLVAYVNEIAEQ | 0.0568 |
| HMATPTEHQLQAQARAVVEKAERLLDRASADDREDIINLIEKITDALAAEDFTAVKAPLAELSDILFYLE | -0.418 |
| HMYDNTVTKYVNSLSVYVRKGPSTSDEIVTSLIKDTDVTVVGENGEWYKIKYKEFEGYIYKNLLSDNKT | -0.254 |
| HMSMPTITLQHYKRGSHYYASIIETFRDPVTRKNSSRTLEALGDISEKMKEDPNYLQSLKDRVKALRSD | -0.656 |
| HMAMTRTEYLNQLKHYLKRLPHTDYEEAMDYFKEYFEEAGPENEAQVIQDLGNPKEAAYEILSQLL | -0.253 |
| HMQWGKVRRLPSGRYQASYVHKGTRYTAPETYTVQGRAHGWIESERRLIVTDTWTPPDTRPS | -1.78 |
